Key:
[1] = target: T1, SARS-CoV-2 spike RBD (WT) (Severe acute respiratory syndrome …, UniProt P0DTC2); assay: BLI
[2] = target: T1, SARS-CoV-2 spike RBD (WT); assay: ELISA; parameters: unit not given here

| Binder | Kd [1] [nM] | binding score [2] |
| --- | --- | --- |
| C2698 (antibody, V domains shown) VH: EVQLVESGGGLAQPGRSLRLSCAASGFKFDDYAMHWVRQVPGQGLEWVSGIDWNSGIIGYADSVMGRFTISRDNAKKSLYLQMNSLRTEDTALYYCAKSGGFGEFKWFDPWGQGTLVTVSS VL: EIVMTQSPATLSVSPGERATLSCRASQSVSSNLAWYQQKPGQAPRLLIYGASTRATGFPARFSGSGSGTEFTLTISRLQSEDFAVYYCQQYNKWPRTFGQGTKLEIK | 152 | 79.2 |
| D053 (antibody, V domains shown) VH: EVQLVESGGGLVKPGGSLRLSCAASGFTFSNAWMSWVRQAPGKGLEWIGRIKSNTDGGTIDYAAPVKGRFTISRDDSKNTLYLQMNSLKTEDTAVYYCTTDGAFFVVADPFDYWGQGTLVTVSS VL: DIQMTQSPSSLSASVGDRVTITCRASQSMTNYLNWYQQKPGKAPELLIYGVSSLQSGVPSRFSGSGSGTDFTLTISSLQPEDFATYYCQQSYRTPRTFGQGTKVEIK | 2420 | 3050 |
| D126 (antibody, V domains shown) VH: QVQLVQSGAEVKKPGASVKVSCKASGYTFTSYGISWVRQAPGQGLEWMGWISAYNGNTNYAQKLQGRVTMTTDTSTSTAYMELRSLRSDDTAVYYCARDDTSGWYTGDAFDIWGQGTMVTVSS VL: not shown | 16.7 | 973 |
| C2712 (antibody, V domains shown) VH: EVQLVESGGGLVQPGGSLRLSCVASGFTFSSDDIHWVRQATGKGLEWVSGIGTAGDTYYAGSVKGRFTISRENAKNSLYLQMKSLRAGDTAVYYCARGVQSWLRGYYYYYMDVWGKGTTVTVSS VL: not shown | 19.6 | 7.83 |
| D103 (antibody, V domains shown) VH: QVQLVESGGGVVQPGRSLRLSCAASGFTFSSYGMHWVRQAPGKGLEWVAVISYDGSNKYYADSVKGRFTISRDNSKNTLYLQMNSLRAEDTAVYYCAKGGYYDSSAYYGPLDYWGQGTLVTVSS VL: SYVLTQPPSVSVAPGKTARITCGGNNIGSKSVHWYQQKPGQAPVLVVYDDSDRPSGIPERFSGSNSGNTATLTISRVEAGDEADYYCQVWDSSSDHWVFGGGTKLTVL | 2700 | > 10000 |
| D108 (antibody, V domains shown) VH: QVQLVQSGAEVKKPGASVKVSCKASGYTFTSSDINWVRQATGQGLEWVGWMNPNSGNTGYAQKFQGRVTMTRNTSISTAYMELSSLRSEDTAVYYCASGPYWSGYYYYFDNWGQGTLVTVSS VL: not shown | 6840 | 6120 |
| C2715 (antibody) chain 1: not shown chain 2: DIQLTQSPSSVSASVGDRVTITCRASQGISSWLAWYQQKPGKAPKLLIYAASSLQSGVPSRFSGSGSGTDFTLTISSLQPEDFATYYCQQANSFPRTFGQGTKVEIK | 63.4 | 189 |
| C2717 (antibody, V domains shown) VH: EVQLVESGGGLVQPGGSLRLSCAASGFTVSSNYMSWVRQAPGKGLEWVSVIYSGGSTYYADSVKGRFTISRDNSKNTLYLQMNSLRAEDTAVYYCARELYSSSSYFDYWGQGTLVTVSS VL: QSVLTQPPSVSGAPGQRVTISCTGSSSNIGAGYDVHWYQQLPGTAPKLLIYGNSNRPSGVPDRFSGSKSGTSASLAITGLQAEDEADYYCQSYDSSLSGSGVFGGGTKLTVL | 153 | 124 |
| D007 (antibody, V domains shown) VH: QVQLVESGGGVVQPGGSLRLSCAASGFTFSSYGMHWVRQAPGKGLEWVAFIRYDGSNKYYADSVKGRFTISRDNSKNTLYLQMNSLRAEDTAVYYCAKDQYYYGSGSYSDYWGQGTLVTVSS VL: not shown | 6720 | 8280 |
| D038 (antibody, V domains shown) VH: EVQLVQSGAEVKKPGESLKISCKGSGYSFTSYWIAWVRQMPGKGLEWMGIIYPGDSDTRYSPSFQGQVTISADKSISTAYLQWSSLKASDTAMYYCARQGYSYGYVDYWGQGTLVTVSS VL: NFMLTQPHSVSESPGKTVTISCTRSSGSIASNYVQWYQQRPGSAPTTVIYEDNQRPSGVPDRFSGSIDSSSNSASLTISGLKTEDEADYYCQSYDSSNWVFGGGTKLTVL | 306 | > 10000 |
| D145 (antibody, V domains shown) VH: QVQLVESGGGVVQPGRSLRLSCAASGFTFSSYGMHWVRQAPGKGLEWVAVISYDGSNKYYADSVKGRFTISRDNSKNTLYLQMNSLRAEDTAVYYCAKGSGPYYYDSSGYYSLFDYWGQGTLVTVSS VL: EIVMTQSPATLSVSPGERATLSCRASQSISSNLAWYQQKPGQAPRLLIDGASTRATGIPARFSGSGSGTEFTLTISSLQSEDFAVYYCQQYNNWPTFGQGTKLEIK | 46.4 | 0.826 |
| D173 (antibody, V domains shown) VH: EVQLVQSGAEVKKPGESLRISCKGSGYSFTSYWISWVRQMPGKGLEWMGRIDPSDSYTNYSPSFQGHVTISADKSISTAYLQWSSLKASDTAMYYCASQGLVPAAIEIWDYWGQGTLVTVSS VL: EIVLTQSPATLSLSPGERATLSCRASQSVSSYLAWYQQKPGQAPRLLIYDASNRATGIPARFSGSGSGTDFTLTISSLEPEDFAVYYCQQHSNWPLTFGGGTKVEIK | 60.3 | 181 |
| D009 (antibody, V domains shown) VH: EVQLLESGGGLVQPGGSLRLSCAATGFTFGSYTMTWVRQAPGKGLEWVSSISVSGRRTYYAGSVQGRFTVSRDNSMNALFLQMNSLRADDTAVYYCARDAPREAYYDRTGHYIFYYGMDLWGQGTTVTVSS VL: EIVMTQSPATLSVSPGERATLSCRASQSVSDNLAWYQQKPGQAPRLLIYGASTRAIGIPDRFTGSGSGTEFTLTISSLQSEDFAVYYCQHYNNGPSVGFGQGTRVEFK | 5440 | 2390 |
| C2722 (antibody, V domains shown) VH: EVQLVESGGGLVQPGGSLRLSCAASGFTFSSYSMNWVRQAPGKGLEWVSYISSSSSTIYYADSVKGRFTISRDNAKNSLYLQMNSLRAEDTAVYYCARDDGGGAYYDFWSGYYGDYWGQGTLVTVSS VL: EIVLTQSPATLSLSPGERATLSCRASQSVSSYLAWYQQKPGQAPRLLIYDASNRATGIPARFSGSGSGTDFTLTISSLEPEDFAVYYCQQRSNWPPFTFGPGTKVDIK | 43.3 | 177 |
| C2697 (antibody, V domains shown) VH: EVQLVESGGGLVQPGGSLRLSCAASGFTFSSSYSMNWVRQAPGKGLEWVSYISSSSSTIYYADSVKGRFTISRDNAKNSLYLQMNSLRDEDTAVYYCARHYGDKTYYFYGMDVWGQGTTVTVSS VL: not shown | 101 | 2060 |
| C2710 (antibody, V domains shown) VH: EVQLVESGGGLVQPGGSLRLSCAASGFTFSSYWMSWVRQAPGKGLEWVANINQDGSEIHYVDSVKGRFTISRDNAKNSLYLQMNSLRAEDTAVYYCAREGGPYDFWSGSNWFDPWGQGTLVTVSS VL: QSALTQPASVSGSPGQSITISCTGTSSDVGGYNFVSWYQQRPGKAPKLMIYEVHNRPSGVSNHFSGSKSGNTASLTISGLQAEDEADYYCSSYTSNSLYVFGTGTKVTVL | 11.9 | 9.12 |
| C2731 (antibody, V domains shown) VH: QVQLQQWGAGLLKPSETLSRTCAVYGGSFSGYYWSWIRQSPGKGLEWIGEINHRGSTNYNPSLKSRVTISVDTSKNQLSLELRSVTAADTAVYYCARSPGWTTVTRPFDYWGQGALVTVSS VL: EIVLTQSPGTLSLSPGERATLSCRASQSVSSNYLAWYQQKPGQAPRLLVYGASNRATGIPDRFSGSGSGTDFTLTISRLEPEDFAVFYCQQYSSSPVTFGQGTRLEIK | 143 | 4400 |
| D155 (antibody, V domains shown) VH: QLQLQESGPGLVKPSETLSLTCTVSGGSISSSSYYWGWIRQPPGKGLEWIGSIYYSGSTYYNPSLKSRVTISVDTSKNQFSLKLSSVTAADTAVYYCARQPYYYDSSGINRAFDIWGQGTMVTVSS VL: QSVLTQPRSVSGSPGQSVTISCTGTSSDVGGYNYVSWYQQHPGKAPKLMIYDVSKRPSGVPDRFSGSKSGNTASLTISGLQAEDEADYYCCSYAGTVVFGGGTKLTVL | 116 | 1000 |
| C2701 (antibody, V domains shown) VH: EVQLVESGGGLVQPGGSLRLSCAASGFTVSSNYMSWVRQAPGKGLEWVSVIYSGGSTYYADSVKGRFTISRHNSKNTLYLQMNSLRAEDTAVYYCARDYGDLFFDYWGQGTTVTVSS VL: not shown | 88.4 | 170 |
| D083 (antibody, V domains shown) VH: EVQLVQSGAEVKKPGESLKISCKGSGYSFTSHWIGWVRQMPGKGLEWMGIIYPGDSDTRYSPSFQGQVTISADKSISTAYLQWSSLKASDTAMYYCARHIKSDLWFGEKDSWGQGTLVTVSS VL: not shown | 12.3 | 62.7 |
| D005 (antibody, V domains shown) VH: QVQLVQSGAEVKKPGASVKVSCKASGYTFTNYYIHWVRQAPGQGLEWMGIINPSAGSTTYAQKFQGRVTMTSDTSTSTVYMELSSLRSEDTAVYYCARAGELIPAARASFQHWGQGTLVTVSS VL: DIQMTQSPSTLSASVGDRVTITCRASQSISTWLAWYQQKPGKAPKILIYKASSLESGVPSRFSGSGSGTEFTLTLSSLQPDDFATYYCQQYNSYSPTFGQGTKVEIK | 49.8 | 96 |
| C2702 (antibody, V domains shown) VH: EVQLVESGGGLVQPGGSLRLSCAASGFTFSSYSMNWVRQAPGKGLEWVSYISSSSSTIYYADSVKGRFTISRDNAKNSLYLQMNSLRDEDTAVYYCASFLWDHSGYDLLFGMDVWGQGTTVTVSS VL: not shown | 125 | 295 |
| D148 (antibody, V domains shown) VH: QLQLQESGPGLVKPSETLSLTCTVSGGSISSSSYYWGWIRQPPGKGLEWIGSIYYSGSTYYNPSLKSRVTISVDTSKNQFSLKLSSVTAADTAVYYCARQTIYYDSSGSLEVEPMDVWGQGTTVTVSS VL: not shown | 6.46 | 29 |
| C2738 (antibody, V domains shown) VH: QVQLQESGPGLVKPSETLSLTCTVSGGSISSYYWSWIRQPAGKGLEWIGRIYTSGSTNYNPSLKSRVTMSVDTSKNQFSLKLSSVTAADTAVYYCARDLWGGSRPFNWFDPWGQGTLVTVSS VL: not shown | 10.2 | 21.1 |

Source: paper PMC9876794 (2022)
